Assays:
Assay in all cases: SPR, KD relative to WT C2;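 also: biacore SPR at 37 °C, anti-C2 mAbs captured via immobilised goat anti-human IgG, C2 alanine or serine surface mutants as analytes, 1:1 model fitted, double-referenced sensograms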
human C2 E686A = molecular target: T1, human C2 E686A (human, UniProt P06681 21-752)
T1 sequence: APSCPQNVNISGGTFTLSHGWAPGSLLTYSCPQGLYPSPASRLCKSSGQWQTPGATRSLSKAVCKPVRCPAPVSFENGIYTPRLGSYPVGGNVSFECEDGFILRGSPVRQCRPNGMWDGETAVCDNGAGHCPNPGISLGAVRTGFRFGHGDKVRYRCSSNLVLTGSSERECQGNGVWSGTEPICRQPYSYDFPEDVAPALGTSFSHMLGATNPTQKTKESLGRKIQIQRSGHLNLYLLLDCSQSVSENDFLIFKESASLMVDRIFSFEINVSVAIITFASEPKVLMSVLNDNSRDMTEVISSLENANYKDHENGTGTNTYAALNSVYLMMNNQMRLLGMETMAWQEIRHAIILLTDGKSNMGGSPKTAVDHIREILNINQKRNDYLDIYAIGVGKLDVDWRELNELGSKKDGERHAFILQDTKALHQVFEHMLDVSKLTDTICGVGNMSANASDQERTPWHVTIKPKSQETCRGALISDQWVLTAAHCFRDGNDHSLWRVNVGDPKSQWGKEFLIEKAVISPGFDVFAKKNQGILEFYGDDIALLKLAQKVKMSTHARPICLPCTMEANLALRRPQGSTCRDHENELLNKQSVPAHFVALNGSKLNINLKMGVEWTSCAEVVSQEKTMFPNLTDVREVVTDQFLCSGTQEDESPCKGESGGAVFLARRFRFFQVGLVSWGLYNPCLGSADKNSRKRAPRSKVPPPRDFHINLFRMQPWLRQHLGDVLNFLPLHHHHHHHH

human C2 E556A = molecular target: T2, human C2 E556A (human, UniProt P06681 21-752)
T2 sequence: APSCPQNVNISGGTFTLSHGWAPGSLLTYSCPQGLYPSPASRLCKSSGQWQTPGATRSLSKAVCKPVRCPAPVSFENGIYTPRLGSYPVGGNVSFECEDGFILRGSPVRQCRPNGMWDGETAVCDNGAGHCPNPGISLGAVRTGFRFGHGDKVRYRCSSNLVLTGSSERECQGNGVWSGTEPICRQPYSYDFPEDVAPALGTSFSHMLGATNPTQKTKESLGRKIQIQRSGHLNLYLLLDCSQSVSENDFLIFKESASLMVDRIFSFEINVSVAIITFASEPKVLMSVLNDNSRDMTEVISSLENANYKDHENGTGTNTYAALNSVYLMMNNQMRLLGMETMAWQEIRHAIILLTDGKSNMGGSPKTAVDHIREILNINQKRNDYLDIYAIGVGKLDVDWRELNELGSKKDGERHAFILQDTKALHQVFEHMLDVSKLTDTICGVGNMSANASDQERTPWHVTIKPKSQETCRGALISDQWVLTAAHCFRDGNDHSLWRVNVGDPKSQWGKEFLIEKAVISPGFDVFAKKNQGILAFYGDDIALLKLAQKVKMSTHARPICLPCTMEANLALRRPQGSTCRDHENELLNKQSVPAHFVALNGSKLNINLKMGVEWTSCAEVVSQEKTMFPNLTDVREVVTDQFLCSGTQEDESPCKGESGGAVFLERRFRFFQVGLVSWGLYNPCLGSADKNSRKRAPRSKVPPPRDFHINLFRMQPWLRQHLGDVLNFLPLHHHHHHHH

[1] = molecular target: T3, human complement C2 (wild type) (human, UniProt P06681 21-752)
T3 construct: Full-length human C2 (NP_000054) with C-terminal 8x His tag, secreted from Expi293F cells and purified from the supernatant; also called WT; huC2
T3 sequence: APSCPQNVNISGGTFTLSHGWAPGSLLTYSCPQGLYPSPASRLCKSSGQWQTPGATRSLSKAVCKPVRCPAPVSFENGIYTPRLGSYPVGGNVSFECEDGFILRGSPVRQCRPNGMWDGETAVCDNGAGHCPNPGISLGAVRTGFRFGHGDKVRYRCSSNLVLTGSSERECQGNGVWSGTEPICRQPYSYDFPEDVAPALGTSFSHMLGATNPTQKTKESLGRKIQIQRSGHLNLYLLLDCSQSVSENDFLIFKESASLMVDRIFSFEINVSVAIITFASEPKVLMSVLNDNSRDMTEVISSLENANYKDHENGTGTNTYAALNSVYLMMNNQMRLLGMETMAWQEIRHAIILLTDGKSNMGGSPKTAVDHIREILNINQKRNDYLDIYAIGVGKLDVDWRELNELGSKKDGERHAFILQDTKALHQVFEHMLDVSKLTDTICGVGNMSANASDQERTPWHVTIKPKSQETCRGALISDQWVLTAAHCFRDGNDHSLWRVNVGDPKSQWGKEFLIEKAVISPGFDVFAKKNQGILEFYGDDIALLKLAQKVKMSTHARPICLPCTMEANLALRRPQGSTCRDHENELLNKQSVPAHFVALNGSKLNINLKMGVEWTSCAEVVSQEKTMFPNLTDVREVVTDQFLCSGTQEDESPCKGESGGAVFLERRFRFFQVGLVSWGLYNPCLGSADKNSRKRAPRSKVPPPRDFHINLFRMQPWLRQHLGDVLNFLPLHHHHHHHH

B1: RF16-226 (antibody, human IgG4 S228P, lambda)
heavy: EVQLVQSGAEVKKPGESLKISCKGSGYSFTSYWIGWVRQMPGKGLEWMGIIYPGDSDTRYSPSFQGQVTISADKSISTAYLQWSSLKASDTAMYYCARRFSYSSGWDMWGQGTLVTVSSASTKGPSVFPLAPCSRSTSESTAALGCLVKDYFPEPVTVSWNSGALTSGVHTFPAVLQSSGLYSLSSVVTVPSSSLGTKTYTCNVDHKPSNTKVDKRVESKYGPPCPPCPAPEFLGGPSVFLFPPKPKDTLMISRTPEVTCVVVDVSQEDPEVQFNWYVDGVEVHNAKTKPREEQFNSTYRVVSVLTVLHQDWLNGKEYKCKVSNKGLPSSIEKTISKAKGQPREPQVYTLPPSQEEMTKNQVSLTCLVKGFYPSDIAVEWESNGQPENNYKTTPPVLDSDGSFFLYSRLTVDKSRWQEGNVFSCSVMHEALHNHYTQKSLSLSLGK
light: SYELTQPPSVSVSPGQTARITCSGDALTSKYVAWYQQKSGLAPLLVIYEDTRRPSGIPAKFSGSSSGSVATLTISGAHGDDEADYYCYSTDASGHQRVFGGGTKLTVLSQPKAAPSVTLFPPSSEELQANKATLVCLISDFYPGAVTVAWKADGSPVKAGVETTKPSKQSNNKYAASSYLSLTPEQWKSHRSYSCQVTHEGSTVEKTVAPTECS
notes: pH-dependent anti-C2 antibody from a phage display library; also called WT
**Q.** For B1, which Fold diff (human C2 E686A) is on record?
**A.** Its Fold diff is 5 fold.

**Q.** And the Fold diff (human C2 E556A)?
**A.** Its Fold diff is 1 fold.

**Q.** And the Fold diff [1]?
**A.** Its Fold diff is 1 fold.
